Patent publication US20250009852A1, “DEPLETING EGFR AND HER2 OVERCOMES RESISTANCE TO EGFR INHIBITORS IN COLORECTAL CANCER” (Health Research, Inc., priority 2021, published 2025)

What was measured:
[1] = tested on: EGFR and HER2; assay: Western blotting of tumor homogenates: EGFR and HER2; type: in vivo, mouse; conditions: 24 h after the final dose
Experimental: To prepare whole cell lysates, cells were washed with PBS twice, mixed with 1× cell lysis buffer from Cell Signaling Technology supplemented with 2 mM PMSF and a protease inhibitor cocktail from Roche Applied Science, placed on ice for 10 min, sonicated at 0-4° C. to enhance cell lysis using a Branson Model 450 sonifier, and finally centrifuged at 13,000 g for 10 min at 4° C., and the supernatant fraction is collected as whole cell lysate. […]
Protein concentrations in all samples were measured using the BCA Assay Kit. […] Proteins were transferred to polyvinylidene fluoride membrane, probed with specific antibodies, and detected using either Luminata Classico (Millipore) or Luminata Cresendo (Millipore). […] The beads were washed three times with IP buffer, suspended in 2× SDS loading buffer, boiled for 5 min, and analyzed by Western blotting.
SCID mice (C.B.17 SCID) were bred by the Laboratory Animal Shared Resource at Roswell Park Comprehensive Cancer Center. […] Subcutaneous tumor volume was measured using length ×width^2÷2. Tumor volume was measured three times each week. Orthotopic tumor growth was monitored by bioluminescence weekly. Mice were given D-luciferin (150 mg/kg) by ip and anesthetized with isoflurane, and tumor burden was measured by bioluminescence using the IVIS Spectrum In Vivo Imaging System (PerkinElmer). Drug treatment was started when significant tumor growth was detected. […]

[2] = tested on: HCT116 cells; assay: MTT cell proliferation assay; type: cell-based, human; conditions: 24, 48 or 72 h, PEPD^G278D 5-250 nM, cetuximab 2.75-275 nM, panitumumab 2.77-277 nM
Experimental: (§1) Cells were grown in 96-well plates. […] The cells were then washed with PBS and mixed with dimethyl sulfoxide (150 μl per well), and cell density was determined by measuring the reduction of MTT to formazan spectroscopically at 570 nm using a Synergy 2 Multi-Mode Microplate Reader (BioTek). In experiments involving siRNA transfection, 2×10^3 HCT116 cells or 6×10^3 HT29 cells were seeded to each well of 96-well plates overnight and then transfected 25 nM siRNA (scramble siRNA, EGFR siRNA or HER2 siRNA) as described above, followed by MTT assay.

[3] = tested on: HT29 cells; assay: MTT cell proliferation assay; type: cell-based, human; conditions: 24, 48 or 72 h, PEPD^G278D 5-250 nM, cetuximab 2.75-275 nM, panitumumab 2.77-277 nM
Experimental: as §1

[4] = tested on: SW48 cells; assay: MTT cell proliferation assay; type: cell-based, human
Experimental: as §1

[5] = tested on: SW620 cells; assay: MTT cell proliferation assay; type: cell-based, human; conditions: SW620 cells (no EGFR, no HER2); 24, 48 or 72 h
Experimental: as §1

[6] = tested on: EGFR and HER2; assay: Western blotting of whole cell lysates: EGFR and HER2; type: cell-based, human; conditions: 25 nM
Experimental: (§2) To prepare whole cell lysates, cells were washed with PBS twice, mixed with 1× cell lysis buffer from Cell Signaling Technology supplemented with 2 mM PMSF and a protease inhibitor cocktail from Roche Applied Science, placed on ice for 10 min, sonicated at 0-4° C. to enhance cell lysis using a Branson Model 450 sonifier, and finally centrifuged at 13,000 g for 10 min at 4° C., and the supernatant fraction is collected as whole cell lysate. Tumor and samples were mixed with RIPA buffer (25 mM Tris-HCl, PH7.6, 150 mM NaCl, 1% Nonidet P-40, 1% sodium deoxycholate, and 0.1% SDS), which was supplemented with 2 mM PMSF, the protease inhibitor cocktail mentioned above, phosphatase inhibitor cocktail 2 and phosphatase inhibitor cocktail 3 from Sigma-Aldrich at 14.3 μl buffer per mg tissue, and homogenized in a Dounce homogenizer. The homogenates were cleared by centrifugation at 13,000 g for 15 min at 4° C.
(§3) Protein concentrations in all samples were measured using the BCA Assay Kit. For Western blotting, each sample was mixed with 4× loading dye, heated for 5 min at 95° C., and resolved by SDS-PAGE (8-12.5%). Proteins were transferred to polyvinylidene fluoride membrane, probed with specific antibodies, and detected using either Luminata Classico (Millipore) or Luminata Cresendo (Millipore). For IP, cell lysates (0.5 mg protein/sample) were incubated with a desired antibody overnight at 4° C., followed by incubation of 500 μl sample with 30 μl G-Sepharose beads (2 mg/ml) for 1 h at RT. The beads were washed three times with IP buffer, suspended in 2× SDS loading buffer, boiled for 5 min, and analyzed by Western blotting.

[7] = target: T1, EGFR and HER2 (Homo sapiens, UniProt P00533); assay: as above; type: cell-based; conditions: HCT116, HT29 and SW48 cells, medium with 10% serum, 25 nM
T1 construct: Both EGFR and HER2 were expressed in HCT116, HT29, and SW48 cells; endogenous in cells; host or cells: HCT116, HT29, SW48 (SW620 lacks both)
Experimental: as §2, §3

- EGFR level ([7]; 6 h): no decrease
- EGFR level ([7]; 24 h): profound decrease
B1: PEPD^G278D: recombinant and enzymatically inactive mutant of human peptidase D (PEPD), with replacement of glycine 278 by aspartic acid (protein)
chain: AAATGPSFWLGNETLKVPLALFALNRQRLCERLRKNPAVQAGSIVVLQGGEETQRYCTDTGVLFLQESFFHWAFGVTEPGCYGVIDVDTGKSTLFVPRLPASHATWMGKIHSKEHFKEKYAVDDVQYVDEIASVLTSQKPSVLLTLRGVNTDSGSVCREASFDGISKFEVNNTILHPEIVESRVFKTDMELEVLRYTNKISSEAHREVMKAVKVGMKEYGLESLFEHYCYSRGGMRHSSYTCICGSGENSAVLHYGHAGAPNDRTIQNGDMCLFDMDGEYYSVASDITCSFPRNGKFTADQKAVYEAVLLSSRAVMGAMKPGDWWPDIDRLADRIHLEELAHMGILSGSVDAMVQAHLGAVFMPHGLGHFLGIDVHDVGGYPEGVERIDEPGLRSLRTARHLQPGMVLTVEPGIYFIDHLLDEALADPARASFLNREVLQRFRGFGGVRIEEDVVVIDSGIELLTCVPRTVEEIEACMAGCDKAFTPFSGPK
modifications: left off: small tags and cut ends
- effect on EGFR, HER2 and ERK in tumors ([1]; HCT116 and HT29 tumors): neither PEPD^G278D nor cetuximab had any effect
- expression and phosphorylation of EGFR and HER2 in tumors ([1]; SW48 tumors): decreased the expression and phosphorylation of both EGFR and HER2
- cell growth measured by MTT assay [2]: strongly inhibited the growth
- cell growth measured by MTT assay [3]: strongly inhibited the growth
- growth-inhibitory potency compared with the EGFR MABs [4]: more potent
- cell growth measured by MTT assay ([4]; 24, 48 or 72 h, PEPD^G278D 5-250 nM, cetuximab 2.75-275 nM, panitumumab 2.77-277 nM): strongly inhibited the growth
- cell growth measured by MTT assay [5]: ineffective
- HER2 level ([6]; HCT116, HT29 and SW48 cells, medium with 10% serum, 3 h): decreased markedly
- expression and tyrosine phosphorylation of EGFR and HER2 ([6]; SW48, HCT116 and HT29 cells, 48 h): obliterated
- EGFR and HER2 level ([6]; serum-free medium, 3 h): marked decrease
